# Measured values: patent publication US8278063B2, “Methods for degrading toxic compounds” (Commonwealth Scientific and Industrial Research Organisation, priority 2007, dated 2012)
# What was measured:
# MheI = MheI (Nocardioides sp., UniProt C8CP46); assay: Enzyme assays and determination of kinetic constants of purified MheI (HPLC); details: 1-40 μM carbendazim, 200 mM sodium phosphate buffer, 22° C.
# Experimental: (§1) Enzyme assays were performed in 96 well microtiter plates (Agilent catalogue number) at 22° C. The assay mixture typically contained 20 μg bovine serum albumin, 0.022 μg purified MheI and 1-40 μM carbendazim in a final volume of 200 μl of 200 mM sodium phosphate buffer. Enzymatic reaction was stopped by adding 5 μl of formic acid after 10 minutes and the initial velocities were measured using HPLC. All these assays were performed in triplicate.
# COC(=O)Nc1nc2ccccc2[nH]1 = assay: purified protein, by the assay type; details: other: purified MheI, 1-40 μM carbendazim, 200 mM sodium phosphate buffer, 22° C.
# Experimental: as §1
# Chain of MheI (C8CP46 whole entry): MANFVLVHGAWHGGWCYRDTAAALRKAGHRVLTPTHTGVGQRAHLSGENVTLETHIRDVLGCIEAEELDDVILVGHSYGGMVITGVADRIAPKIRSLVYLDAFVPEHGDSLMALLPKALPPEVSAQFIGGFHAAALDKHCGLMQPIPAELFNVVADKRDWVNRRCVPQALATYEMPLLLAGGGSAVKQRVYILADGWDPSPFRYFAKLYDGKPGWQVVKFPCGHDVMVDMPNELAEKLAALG
Molecule,Km (MheI) [µM],Km (COC(=O)Nc1nc2ccccc2[nH]1) [µM],kcat (COC(=O)Nc1nc2ccccc2[nH]1) [per second]
COC(=O)Nc1nc2ccccc2[nH]1 [carbendazim],6.1,–,–
MheI (Nocardioides sp. SG-4G),–,6.1,120
